US20060277614A1 (INSTITUT NAT L DE LA SANTE ET DE LA RECH MED, published 2006)
Blank lines part the entries; values can stand above or below the molecule they belong to.

What was measured:
[1] = biological target: T1, human prolactin receptor (human, UniProt P16471 25-622); assay: cell-based or functional assay
T1 sequence (looked up): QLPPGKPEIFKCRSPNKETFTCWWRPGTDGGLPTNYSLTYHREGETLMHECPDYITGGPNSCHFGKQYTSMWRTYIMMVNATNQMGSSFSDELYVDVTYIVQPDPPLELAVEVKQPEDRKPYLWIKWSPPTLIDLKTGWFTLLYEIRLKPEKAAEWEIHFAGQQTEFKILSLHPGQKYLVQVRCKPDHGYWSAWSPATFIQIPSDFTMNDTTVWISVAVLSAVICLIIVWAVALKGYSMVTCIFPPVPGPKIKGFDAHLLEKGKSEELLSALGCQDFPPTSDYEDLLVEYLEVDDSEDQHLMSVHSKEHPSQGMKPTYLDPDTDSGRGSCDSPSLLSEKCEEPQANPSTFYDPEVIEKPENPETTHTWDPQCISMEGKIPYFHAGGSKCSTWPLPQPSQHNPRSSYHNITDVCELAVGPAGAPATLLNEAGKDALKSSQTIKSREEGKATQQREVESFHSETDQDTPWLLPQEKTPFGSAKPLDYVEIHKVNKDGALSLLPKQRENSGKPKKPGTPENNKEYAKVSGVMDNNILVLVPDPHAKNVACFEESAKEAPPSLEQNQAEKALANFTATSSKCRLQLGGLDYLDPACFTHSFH

[2] = biological target: T1, human prolactin receptor; assay: competition with [125I]-hPRL on HL5 cell homogenates (human PRLR)
Description: (§1) The affinity of the various hPRL analogs for the human PRLR was estimated by their ability to compete [¹²⁵I]-hPRL for binding to this receptor. Binding affinities were determined using cell homogenates of HL5 cells (expressing the human PRLR), following the procedure previously described (KINET et al., J. Biol. Chem., 274, 26033-26043, 1999).
(§2) Briefly, hPRL was iodinated using IODOGEN, and its specific activity was in the range of 40-50 μCi/μg. Binding assays were performed overnight at room temperature using 150-300 μg cell homogenate protein in the presence of 30,000 cpm [¹²⁵I]-hPRL and increasing concentrations of unlabeled competitor (WT or mutated hPRL).
(§3) The relative binding affinity of hPRL analogs was calculated as the ratio of their IC₅₀ with respect to that of WT hPRL calculated from competition curves (regression in the linear part of sigmoids). Results presented in FIG. 2A are representative of at least three independent experiments performed in duplicate.

[3] = biological target: T1, human prolactin receptor; assay: competition with [125I]-hPRL on HL5 cell homogenates (human PRLR); mean of three experiments
Description: as §1, §2, §3

[4] = biological target: human prolactin receptor (human) (UniProt P16471); assay: cell-based or functional assay
[5] = biological target: human prolactin receptor (human) (UniProt P16471); assay: competition with [125I]-hPRL on HL5 cell homogenates (human PRLR); ratio of IC50 to that of WT hPRL
[6] = biological target: T1, human prolactin receptor; assay: competition of unlabeled WT hPRL with [125I]-hPRL on HL5 cell homogenates (human PRLR); mean of three experiments
Description: as §1, §2, §3

B2: wild-type human prolactin (ligand, UniProt P01236 29-227, looked up)
chain: LPICPGGAARCQVTLRDLFDRAVVLSHYIHNLSSEMFSEFDKRYTHGRGFITKAINSCHTSSLATPEDKEQAQQMNQKDFLSLIVSILRSWNEPLYHLVTEVRGMQEAPEAILSKAVEIEEQTKRLLEGMELIVSQVHPETKENEIYPVWSGLPSLQMADEESRLSAYYNLLHCLRRDSHKIDNYLKLLKCRIIHNNNC
notes: mature; Monomeric fraction used; Residue numbers (Cys4, Cys11, Gly129) count on the mature hormone; also called WT hPRL; hPRL
- IC50 [6]: 0.018 µg/mL

B4: Δ1-13-hPRL (ligand, human)
chain: MTLRDLFDRAVVLSHYIHNLSSEMFSEFDKRYTHGRGFITKAINSCHTSSLATPEDKEQAQQMNQKDFLSLIVSILRSWNEPLYHLVTEVRGMQEAPEAILSKAVEIEEQTKRLLEGMELIVSQVHPETKENEIYPVWSGLPSLQMADEESRLSAYYNLLHCLRRDSHKIDNYLKLLKCRIIHNNNC
- LHRE-luciferase reporter in HL5 cells, EC50 against WT hPRL [1]: ~2 fold

B6: Δ1-14-hPRL (ligand, human)
chain: MLRDLFDRAVVLSHYIHNLSSEMFSEFDKRYTHGRGFITKAINSCHTSSLATPEDKEQAQQMNQKDFLSLIVSILRSWNEPLYHLVTEVRGMQEAPEAILSKAVEIEEQTKRLLEGMELIVSQVHPETKENEIYPVWSGLPSLQMADEESRLSAYYNLLHCLRRDSHKIDNYLKLLKCRIIHNNNC
- LHRE-luciferase reporter in HL5 cells, EC50 against WT hPRL [1]: ~3 fold

B7: Δ1-14-G129R-hPRL (ligand, human)
chain: MLRDLFDRAVVLSHYIHNLSSEMFSEFDKRYTHGRGFITKAINSCHTSSLATPEDKEQAQQMNQKDFLSLIVSILRSWNEPLYHLVTEVRGMQEAPEAILSKAVEIEEQTKRLLERMELIVSQVHPETKENEIYPVWSGLPSLQMADEESRLSAYYNLLHCLRRDSHKIDNYLKLLKCRIIHNNNC
notes: range 15-199; Mature-hormone numbering; also called Δ1-14-G129R-PRL; double mutant Δ1-14-G129R-hPRL
- fold lower affinity compared to WT hPRL [2]: ~10 fold
- IC50 [3]: 0.187 µg/mL

Second part, the molecule after the results:

- Ba/F3-hPRLR cell proliferation, antagonism of 10 ng/ml WT hPRL, molar excess needed [1]: 10 to 50 fold
- fold lower affinity compared to WT hPRL [2]: 10 fold
- IC50 [3]: 0.166 µg/mL
Molecule: Δ1-9-G129R-hPRL (from UniProt P01236 10-199) (ligand)

- LHRE-luciferase reporter in HL5 cells, EC50 against WT hPRL [4]: 2 fold
- LHRE-luciferase reporter in HL5 cells, maximal response against WT hPRL [4]: 120 to 140%
Molecule: Δ1-10-hPRL (from UniProt P01236 11-199) (ligand)

- LHRE-luciferase reporter in HL5 cells, EC50 against WT hPRL [4]: 2 fold
- LHRE-luciferase reporter in HL5 cells, maximal response against WT hPRL [4]: 120 to 140%
- increase in affinity compared to WT hPRL [5]: 20%
Molecule: Δ1-9-hPRL (from UniProt P01236 10-199) (ligand)

- LHRE-luciferase reporter in HL5 cells, EC50 against WT hPRL [1]: ~2 fold
B1: Δ1-11-hPRL (ligand, human)
chain: MQVTLRDLFDRAVVLSHYIHNLSSEMFSEFDKRYTHGRGFITKAINSCHTSSLATPEDKEQAQQMNQKDFLSLIVSILRSWNEPLYHLVTEVRGMQEAPEAILSKAVEIEEQTKRLLEGMELIVSQVHPETKENEIYPVWSGLPSLQMADEESRLSAYYNLLHCLRRDSHKIDNYLKLLKCRIIHNNNC

- fold lower affinity compared to WT hPRL [2]: ~10 fold
B3: G129R-hPRL (ligand, human, UniProt P01236 29-227, looked up)
chain: LPICPGGAARCQVTLRDLFDRAVVLSHYIHNLSSEMFSEFDKRYTHGRGFITKAINSCHTSSLATPEDKEQAQQMNQKDFLSLIVSILRSWNEPLYHLVTEVRGMQEAPEAILSKAVEIEEQTKRLLERMELIVSQVHPETKENEIYPVWSGLPSLQMADEESRLSAYYNLLHCLRRDSHKIDNYLKLLKCRIIHNNNC
notes: mature; also called single mutant G129R-hPRL

- LHRE-luciferase reporter in HL5 cells, EC50 against WT hPRL [1]: ~2 fold
B5: Δ1-12-hPRL (ligand, human)
chain: MVTLRDLFDRAVVLSHYIHNLSSEMFSEFDKRYTHGRGFITKAINSCHTSSLATPEDKEQAQQMNQKDFLSLIVSILRSWNEPLYHLVTEVRGMQEAPEAILSKAVEIEEQTKRLLEGMELIVSQVHPETKENEIYPVWSGLPSLQMADEESRLSAYYNLLHCLRRDSHKIDNYLKLLKCRIIHNNNC
